# Source: patent publication US20100279930A1 (published 2010)
# Read-outs that look alike come from different tables or passages of the source. No end group written: not given here.
# How the values were obtained:
# human Y4 receptor [1] = biological target: T1, human Y4 receptor (human, UniProt P50391 1-375); assay: 125I-PP displacement
# human Y4 receptor [2] = biological target: T1, human Y4 receptor; assay: 125I-PP displacement; remark: listed apart in the source
# T1 sequence (P50391 whole entry): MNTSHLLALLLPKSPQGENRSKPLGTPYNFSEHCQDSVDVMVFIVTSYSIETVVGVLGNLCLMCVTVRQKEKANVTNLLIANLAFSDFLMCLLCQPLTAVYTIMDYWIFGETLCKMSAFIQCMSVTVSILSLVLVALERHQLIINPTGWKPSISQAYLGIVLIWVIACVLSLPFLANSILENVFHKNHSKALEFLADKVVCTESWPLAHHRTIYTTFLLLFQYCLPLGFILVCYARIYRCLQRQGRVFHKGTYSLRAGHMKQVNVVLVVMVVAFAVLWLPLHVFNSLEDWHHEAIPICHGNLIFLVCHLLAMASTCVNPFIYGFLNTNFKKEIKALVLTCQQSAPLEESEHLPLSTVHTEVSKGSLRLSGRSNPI
IC50 (human Y4 receptor [1]) [nM],IC50 (human Y4 receptor [2]) [nM],Binder
0.16,,APLEPVYPGDDATPEELNHYYSALRRYINMLTRPRY [6841]
0.2,,APLEPFYPGDNATPEQMAQYAAELRRYINMLTRPRY [6829]
0.26,,APLEPVYPGDNATPEQMAQYAADLRRYINMCTRPRY [6835]
0.18,,APLEPVYPGDDATPQQMAQYAAEMRRYINMLTRPRY [6667]
0.14,,APLEPEYPGDDATPQQMAQYAAELRRYINMLTRPRY [6819]
0.24,,APLEPVYPGDDATPQQMAQYAAELRRYINLLTRPRY [6812]
0.15,,APLEPFYPGDDATPQQMARYAAELRRYINMLTRPRY [6816]
0.11,,APLEPFYPGDNATPEQMAQYAAALRRYINLLTRPRY [6810]
0.21,,APLEPFYPGDNATPEQMAQYAAALRKYINMLTRPRY [6809]
0.13,,APLEPVYPGDDATPQQMARYAAELRRYINMLTRPRY [6815]
0.13,,APLEPVYPGDNATPEQMAQYAAELRRYINMLTRPRY [6823]
0.2,,APLEPFYPGDDATPQQMAQYAAELRRYINMLTRPRY [6817]
0.12,,APLEPFYPGDNATPEQMARYAAELRRYINMLTRPRY [6828]
0.07,,APLEPEYPGDDATPQQMARYAAELRRYINMLTRPRY [6827]
,0.106,APLEPVYPGDNATPEQMAQYAAALRRYINKLTRPRY [compound of SEQ ID NO:167 (code 7214)]
0.19,,APLEPVYPGDNATPEQRAQYAADLRRYINTLTRPRY [6807]
0.11,,APLEPVYPGDNATPEELVKYYIELRRYINMLTRPRY [6851]
,0.15,APLEPVYPGDNATPEELVHYYSALRHYINMLTRPRY [7105]
0.17,,APLEPVYPGDNATPEELVKYFVGLRRYINMLTRPRY [6850]
0.19,,APLEPFYPGDNATPEEIVKYYSALRRYINMLTRPRY [6844]

IC50 (human Y4 receptor [1]) [nM],IC50 (human Y4 receptor [2]) [nM],Binder
0.15,,APLEPVYPGDNATPEELVKYFIELRRYINMLTRPRY [6849]
0.12,,APLEPVYPGDNATPEELVKYFSALRRYINMLTRPRY [6848]
0.17,,APLEPFYPGDNATPEELVKYYSALRRYINMLTRPRY [6843]
,0.084,APLEPVYPGDNATPEELVKYYSALRRYINMLTRHRY [7113]
0.19,,YYYAPLEPVYPGDYATPEQRAQYETQLRRYINTLTRPRY [6806]
0.15,,YYYAPLEPVYPGDNATPEQRAQYAADLRRYINTLTRPRY [6808]
0.2,,APLEPMYPGDYATPEQMAQYETQLRRYINTLTRPRY [6803]
0.076,,KPLEPVYPGDNATPEELNRYYASLRRYINMLTRPRY [compound of SEQ ID NO:72 (code 6674)]
0.12,,APLEPVYPGDNATPEELNHYYSALRRYINMLTRPRY [6839]
0.15,,APLEPFYPGDNATPEELVKYYASLRRYINMLTRPRY [6846]
,0.12,APLEPVYPGDNATPEEINRYYSALRRYINMLTRPRY [7121]
0.089,,KPLEPVYPGDNATPEELNRYYASLRRYINMLTRPRY [compound of SEQ ID NO:73 (code 6675)]
0.16,,APLEPVYPGDNATPEELNRYYASLRKYINMLTRPRY [6673]
0.17,,APLEPVYPGDNATPEQMAQYAADLRRYINMLTRPHRY (ends and bridges not checked) [compound of SEQ ID NO:62 (code 6659)]
,0.165,GAPLEPVYPGDNATPEQMAHYAAELRRYINTLTRPRY [7159]
0.15,,HAPLEPVYPGDNATPEELNHYYASLRRYINMLTRPRY [6859]
,0.11,PAPLEPVYPGDNATPEELVKYYASLRRYINMLTRPRY [7110]
0.22,,HAPLEPVYPGDNATPEELNQYYASLRRYINMLTRPRY [6857]
0.11,,AAPLEPVYPGDNATPEELNRYYASLRRYINMLTRPRY [6671]
0.11,,HAPLEPVYPGDNATPEELVKYYSALRRYINMLTRPRY [6860]

IC50 (human Y4 receptor [1]) [nM],IC50 (human Y4 receptor [2]) [nM],Binder
0.17,,AAPLEPVYPGDNATPEELNHYYSALRRYINMLTRPRY [6840]
0.29,,PAPLEPVYPGDDATPQQMAQYAAELRRYINMLTRPRY [6865]
,0.165,PAPLEPFYPGDDATPQQMAHYAAELRRYINMLTRPRY [7145]
0.15,,AAPLEPFYPGDDATPQQMAQYAAELRRYINMLTRPRY [6818]
0.12,,AAPLEPFYPGDDATPQQMAQYAAALRRYINMLTRPRY [6665]
,0.169,PAPLEPEYPGDDATPQQMAHYAAELRRYINMLTRPRY [7150]
0.11,,PLEPVYPGDDATPQQMAQYAAALRRYINMLTRPRY [6666]
0.1,,PAPLEPVYPGDNATPEELVKYYSALRRYINMLTRPRY [6861]
0.16,,AAPLEPVYPGDNATPEELVKYYSALRRYINMLTRPRY [6863]
0.11,,AAPLEPVYPGDNATPEELVKYYSALRRYINMLTRPRY [6862]
,0.166,PAPLEPVYPGDNATPEELVKYYSALRRYINMLTRHRY [7114]
0.28,,AAPLEPVYPGDNATPEQMAQYAADLRKYINMLTRPRY [6668]
0.16,,AAPLEPVYPGDNATPEQMAQYAADLRRYINTLTRPRY [6658]
0.32,,AAPLEPVYPGDNATPEQMAQYAADLRKYINLLTRPRY [6669]
0.2,,AAPLEPFYPGDNATPEQMAQYAAALRRYINLLTRPRY [6811]
0.25,,AAPLEPVYPGDNATPEQLAQYAADLRRYINLLTRPRY [6657]
0.69,,CAPLEPVYPGDNATPEQMAQYAADLRRYINMLTRPRY [6836]
0.22,,AAPLEPVYPGDDATPQQMAQYAAELRKYINMLTRPRY [6814]
